According to paper PMC13185157:

Target: GFP-LNX1
Assay: flow cytometry on cells; α-GFP-Nb yeast incubated with lysates of HEK293 cells expressing FLAG-tagged partner plus GFP-LNX1 or GFP; washed once; anti-FLAG antibody; percent of positive cells

FLAG-Liprin-α1, sequence (Q13136 whole entry): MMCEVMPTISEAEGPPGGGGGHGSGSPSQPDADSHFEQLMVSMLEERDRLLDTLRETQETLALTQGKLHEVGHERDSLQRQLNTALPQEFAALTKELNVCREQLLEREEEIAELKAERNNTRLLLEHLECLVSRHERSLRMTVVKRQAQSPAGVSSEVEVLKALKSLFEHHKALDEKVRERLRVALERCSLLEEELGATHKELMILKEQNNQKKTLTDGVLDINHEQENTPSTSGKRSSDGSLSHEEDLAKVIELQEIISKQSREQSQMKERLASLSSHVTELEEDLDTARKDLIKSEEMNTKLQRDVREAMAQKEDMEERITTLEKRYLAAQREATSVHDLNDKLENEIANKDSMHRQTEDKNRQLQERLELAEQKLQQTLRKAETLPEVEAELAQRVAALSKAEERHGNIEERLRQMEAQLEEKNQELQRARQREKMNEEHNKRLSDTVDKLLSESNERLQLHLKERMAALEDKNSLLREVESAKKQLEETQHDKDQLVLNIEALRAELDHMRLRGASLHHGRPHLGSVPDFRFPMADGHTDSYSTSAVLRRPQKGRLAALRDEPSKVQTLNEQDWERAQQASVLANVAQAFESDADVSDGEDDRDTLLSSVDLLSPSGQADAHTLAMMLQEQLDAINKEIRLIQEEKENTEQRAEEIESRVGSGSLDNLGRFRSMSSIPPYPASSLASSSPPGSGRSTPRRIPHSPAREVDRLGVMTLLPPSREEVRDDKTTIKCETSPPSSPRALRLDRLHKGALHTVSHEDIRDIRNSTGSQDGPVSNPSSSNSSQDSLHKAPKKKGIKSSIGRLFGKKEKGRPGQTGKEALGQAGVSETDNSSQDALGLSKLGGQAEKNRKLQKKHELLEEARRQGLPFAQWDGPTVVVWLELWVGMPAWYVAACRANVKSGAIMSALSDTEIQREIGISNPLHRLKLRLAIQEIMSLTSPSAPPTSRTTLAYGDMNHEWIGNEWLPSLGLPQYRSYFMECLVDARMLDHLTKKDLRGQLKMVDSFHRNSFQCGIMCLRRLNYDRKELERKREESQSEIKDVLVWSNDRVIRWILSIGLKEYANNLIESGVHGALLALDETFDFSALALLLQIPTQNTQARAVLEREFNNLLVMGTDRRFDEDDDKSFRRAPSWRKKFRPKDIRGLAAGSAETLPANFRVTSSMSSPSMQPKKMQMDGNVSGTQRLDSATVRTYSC
FLAG-ZNF24, sequence (P17028 whole entry): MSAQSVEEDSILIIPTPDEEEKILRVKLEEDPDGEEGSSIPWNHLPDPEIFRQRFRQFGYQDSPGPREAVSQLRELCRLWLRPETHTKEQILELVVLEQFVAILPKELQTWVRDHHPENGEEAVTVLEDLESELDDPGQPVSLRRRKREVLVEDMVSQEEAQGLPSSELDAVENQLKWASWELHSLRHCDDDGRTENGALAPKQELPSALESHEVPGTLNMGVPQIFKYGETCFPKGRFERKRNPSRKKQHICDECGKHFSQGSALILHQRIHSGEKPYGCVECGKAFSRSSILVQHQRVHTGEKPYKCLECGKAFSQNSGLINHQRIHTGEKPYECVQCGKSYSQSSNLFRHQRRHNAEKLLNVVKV
FLAG-NUMB, sequence (Q9QZS3 whole entry): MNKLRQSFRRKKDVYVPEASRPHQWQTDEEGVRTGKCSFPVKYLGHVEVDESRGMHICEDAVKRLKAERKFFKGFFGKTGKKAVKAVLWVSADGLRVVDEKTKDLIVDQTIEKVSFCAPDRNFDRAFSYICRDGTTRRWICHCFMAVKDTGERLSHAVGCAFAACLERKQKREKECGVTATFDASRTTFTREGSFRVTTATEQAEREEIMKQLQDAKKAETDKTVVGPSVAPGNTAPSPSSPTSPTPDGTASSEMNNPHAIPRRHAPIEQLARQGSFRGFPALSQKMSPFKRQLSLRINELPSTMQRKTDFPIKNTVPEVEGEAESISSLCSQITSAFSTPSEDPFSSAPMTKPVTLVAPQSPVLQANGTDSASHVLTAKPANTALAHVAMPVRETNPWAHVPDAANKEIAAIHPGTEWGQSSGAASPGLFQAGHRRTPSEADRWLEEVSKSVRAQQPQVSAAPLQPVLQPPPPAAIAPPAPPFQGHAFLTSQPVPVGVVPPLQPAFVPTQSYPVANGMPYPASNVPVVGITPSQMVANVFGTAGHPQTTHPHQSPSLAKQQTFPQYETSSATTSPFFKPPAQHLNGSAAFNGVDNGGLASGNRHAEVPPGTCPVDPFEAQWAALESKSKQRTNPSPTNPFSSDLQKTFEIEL

| percent of cells positively labelled with anti-FLAG antibody | percent of FLAG positive cells | Substance |
| --- | --- | --- |
| 30% | – | FLAG-Liprin-α1 (from UniProt Q13136 1-1202) (natural protein) |
| 10% | – | FLAG-NUMB (from UniProt Q9QZS3 1-653) (natural protein) |
| – | 77% | FLAG-ZNF24 (from UniProt P17028 1-368) (natural protein) |
